Test results reported in PMC3074162.

T1: ParB 65-139 (RHH domain) (Leifsonia xyli subsp. cynodontis …, UniProt Q6EEF9 65-139)
T1 sequence: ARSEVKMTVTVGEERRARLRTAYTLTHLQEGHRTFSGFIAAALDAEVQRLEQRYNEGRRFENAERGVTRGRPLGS


molecular target: T1, ParB 65-139 (RHH domain); assay: ITC

| Binder | Kd | binding result |
| --- | --- | --- |
| R3-18-1T (dsDNA) DNA 1: TGAATAGGTGGAAAAGCC DNA 2: GGCTTTTCCACCTATTCA | 67 ± 6 nM |  |
| R3-18-10T (dsDNA) DNA 1: GGAATAGGTTGAAAAGCC DNA 2: GGCTTTTCAACCTATTCC | 18 ± 2 nM |  |
| R3-18-15G (dsDNA) DNA 1: GGAATAGGTGGAAAGGCC DNA 2: GGCCTTTCCACCTATTCC | 88 ± 12 nM |  |
| R3-18-4T (dsDNA) DNA 1: GGATTAGGTGGAAAAGCC DNA 2: GGCTTTTCCACCTAATCC | 33 ± 8 nM |  |
| R3-18-7C (dsDNA) DNA 1: GGAATACGTGGAAAAGCC DNA 2: GGCTTTTCCACGTATTCC | 36 ± 9 nM |  |
| R3-18-13G (dsDNA) DNA 1: GGAATAGGTGGAGAAGCC DNA 2: GGCTTCTCCACCTATTCC | 64 ± 15 nM |  |
| R3-18-6G (dsDNA) DNA 1: GGAATGGGTGGAAAAGCC DNA 2: GGCTTTTCCACCCATTCC | 209 ± 77 nM |  |
| R3-18-8A (dsDNA) DNA 1: GGAATAGATGGAAAAGCC DNA 2: GGCTTTTCCATCTATTCC | 30 ± 7 nM |  |
| R3-18-3G (dsDNA) DNA 1: GGGATAGGTGGAAAAGCC DNA 2: GGCTTTTCCACCTATCCC | 121 ± 31 nM |  |
| R3-18-14G (dsDNA) DNA 1: GGAATAGGTGGAAGAGCC DNA 2: GGCTCTTCCACCTATTCC | 42 ± 9 nM |  |
| R3-18-9A (dsDNA) DNA 1: GGAATAGGAGGAAAAGCC DNA 2: GGCTTTTCCTCCTATTCC | 143 ± 31 nM |  |
| R3-18-15T (dsDNA) DNA 1: GGAATAGGTGGAAATGCC DNA 2: GGCATTTCCACCTATTCC | 30 ± 6 nM |  |
| R3-18-12G (dsDNA) DNA 1: GGAATAGGTGGGAAAGCC DNA 2: GGCTTTCCCACCTATTCC | 203 ± 43 nM |  |
| R3-18-18A (dsDNA) DNA 1: GGAATAGGTGGAAAAGCA DNA 2: TGCTTTTCCACCTATTCC | 46 ± 10 nM |  |
| R3-18-1A (dsDNA) DNA 1: AGAATAGGTGGAAAAGCC DNA 2: GGCTTTTCCACCTATTCT | 56 ± 12 nM |  |
| R3-18-14C (dsDNA) DNA 1: GGAATAGGTGGAACAGCC DNA 2: GGCTGTTCCACCTATTCC | 33 ± 10 nM |  |
| R3-18-2T (dsDNA) DNA 1: GTAATAGGTGGAAAAGCC DNA 2: GGCTTTTCCACCTATTAC | 187 ± 20 nM |  |
| R3-18-13C (dsDNA) DNA 1: GGAATAGGTGGACAAGCC DNA 2: GGCTTGTCCACCTATTCC | 46 ± 12 nM |  |
| R3-18-18T (dsDNA) DNA 1: GGAATAGGTGGAAAAGCT DNA 2: AGCTTTTCCACCTATTCC | 32 ± 6 nM |  |
| R3-18-18G (dsDNA) DNA 1: GGAATAGGTGGAAAAGCG DNA 2: CGCTTTTCCACCTATTCC | 70 ± 17 nM |  |

| Binder | Kd | binding result |
| --- | --- | --- |
| R3-18-8C (dsDNA) DNA 1: GGAATAGCTGGAAAAGCC DNA 2: GGCTTTTCCAGCTATTCC | 32 ± 8 nM |  |
| R3-18-16T (dsDNA) DNA 1: GGAATAGGTGGAAAATCC DNA 2: GGATTTTCCACCTATTCC | 16 ± 6 nM |  |
| R3-18-2C (dsDNA) DNA 1: GCAATAGGTGGAAAAGCC DNA 2: GGCTTTTCCACCTATTGC | 189 ± 22 nM |  |
| R4-20 (dsDNA) DNA 1: TGGAAAAGCCAGAAACAGTG DNA 2: CACTGTTTCTGGCTTTTCCA | 68 ± 48 nM |  |
| R3-18-7A (dsDNA) DNA 1: GGAATAAGTGGAAAAGCC DNA 2: GGCTTTTCCACTTATTCC | 15 ± 5 nM |  |
| R3-18-12T (dsDNA) DNA 1: GGAATAGGTGGTAAAGCC DNA 2: GGCTTTACCACCTATTCC | 57 ± 16 nM |  |
| R3-18-11T (dsDNA) DNA 1: GGAATAGGTGTAAAAGCC DNA 2: GGCTTTTACACCTATTCC | 41 ± 9 nM |  |
| R3-18-15C (dsDNA) DNA 1: GGAATAGGTGGAAACGCC DNA 2: GGCGTTTCCACCTATTCC | 81 ± 8 nM |  |
| R3-18-12C (dsDNA) DNA 1: GGAATAGGTGGCAAAGCC DNA 2: GGCTTTGCCACCTATTCC | 58 ± 31 nM |  |
| R1-18 (dsDNA) DNA 1: TGGCTATCCAGTAAAGTA DNA 2: TACTTTACTGGATAGCCA | 950 ± 680 nM |  |
| R3-18-4G (dsDNA) DNA 1: GGAGTAGGTGGAAAAGCC DNA 2: GGCTTTTCCACCTACTCC | 62 ± 15 nM |  |
| R3-18-16A (dsDNA) DNA 1: GGAATAGGTGGAAAAACC DNA 2: GGTTTTTCCACCTATTCC | 22 ± 9 nM |  |
| R2-18 (dsDNA) DNA 1: AGTAAAGTAGGAATAGGT DNA 2: ACCTATTCCTACTTTACT | 380 ± 100 nM |  |
| R3-18-11C (dsDNA) DNA 1: GGAATAGGTGCAAAAGCC DNA 2: GGCTTTTGCACCTATTCC | 56 ± 11 nM |  |
| R3-18-5A (dsDNA) DNA 1: GGAAAAGGTGGAAAAGCC DNA 2: GGCTTTTCCACCTTTTCC | 27 ± 11 nM |  |
| R3-18-5C (dsDNA) DNA 1: GGAACAGGTGGAAAAGCC DNA 2: GGCTTTTCCACCTGTTCC | 39 ± 13 nM |  |
| R3-18-7T (dsDNA) DNA 1: GGAATATGTGGAAAAGCC DNA 2: GGCTTTTCCACATATTCC | 35 ± 5 nM |  |
| R3-18-9G (dsDNA) DNA 1: GGAATAGGGGGAAAAGCC DNA 2: GGCTTTTCCCCCTATTCC | 365 ± 57 nM |  |
| R4-16 (dsDNA) DNA 1: GAAAAGCCAGAAACAG DNA 2: CTGTTTCTGGCTTTTC | 530 ± 50 nM |  |
| R3-18-17A (dsDNA) DNA 1: GGAATAGGTGGAAAAGAC DNA 2: GTCTTTTCCACCTATTCC | 84 ± 13 nM |  |

| Binder | Kd | binding result |
| --- | --- | --- |
| R3-18-5G (dsDNA) DNA 1: GGAAGAGGTGGAAAAGCC DNA 2: GGCTTTTCCACCTCTTCC | 38 ± 9 nM |  |
| R3-18-17G (dsDNA) DNA 1: GGAATAGGTGGAAAAGGC DNA 2: GCCTTTTCCACCTATTCC | 35 ± 11 nM |  |
| R3-18-3T (dsDNA) DNA 1: GGTATAGGTGGAAAAGCC DNA 2: GGCTTTTCCACCTATACC | 123 ± 12 nM |  |
| R8-18 (dsDNA) DNA 1: GGAAAAGCTGGAATTGTT DNA 2: AACAATTCCAGCTTTTCC | 56 ± 12 nM |  |
| R3-18-6C (dsDNA) DNA 1: GGAATCGGTGGAAAAGCC DNA 2: GGCTTTTCCACCGATTCC | 60 ± 28 nM |  |
| R3-18-16C (dsDNA) DNA 1: GGAATAGGTGGAAAACCC DNA 2: GGGTTTTCCACCTATTCC | 20 ± 7 nM |  |
| R3-18-17T (dsDNA) DNA 1: GGAATAGGTGGAAAAGTC DNA 2: GACTTTTCCACCTATTCC | 30 ± 8 nM |  |
| R3-18-4C (dsDNA) DNA 1: GGACTAGGTGGAAAAGCC DNA 2: GGCTTTTCCACCTAGTCC | 45 ± 12 nM |  |
| R4-14 (dsDNA) DNA 1: AAAAGCCAGAAACA DNA 2: TGTTTCTGGCTTTT |  | no binding |
| R3-18-1C (dsDNA) DNA 1: CGAATAGGTGGAAAAGCC DNA 2: GGCTTTTCCACCTATTCG | 216 ± 22 nM |  |
| R3-18-3C (dsDNA) DNA 1: GGCATAGGTGGAAAAGCC DNA 2: GGCTTTTCCACCTATGCC | 89 ± 13 nM |  |
| R3-18-9C (dsDNA) DNA 1: GGAATAGGCGGAAAAGCC DNA 2: GGCTTTTCCGCCTATTCC | 46 ± 11 nM |  |
| R3-18-8T (dsDNA) DNA 1: GGAATAGTTGGAAAAGCC DNA 2: GGCTTTTCCAACTATTCC | 17 ± 6 nM |  |
| R3-18-14T (dsDNA) DNA 1: GGAATAGGTGGAATAGCC DNA 2: GGCTATTCCACCTATTCC | 46 ± 8 nM |  |
| R3-18-6T (dsDNA) DNA 1: GGAATTGGTGGAAAAGCC DNA 2: GGCTTTTCCACCAATTCC | 37 ± 5 nM |  |
| R3-18-13T (dsDNA) DNA 1: GGAATAGGTGGATAAGCC DNA 2: GGCTTATCCACCTATTCC | 73 ± 22 nM |  |
| R3-18-11A (dsDNA) DNA 1: GGAATAGGTGAAAAAGCC DNA 2: GGCTTTTTCACCTATTCC | 44 ± 21 nM |  |
| R3-18-2A (dsDNA) DNA 1: GAAATAGGTGGAAAAGCC DNA 2: GGCTTTTCCACCTATTTC | 59 ± 29 nM |  |
